Experimental data as given in publication PMC3888030 (Journal of immunology (Baltimore, Md. : 1950), 2013).
Like-named read-outs stand apart in the source and are kept apart here.

Assays:
HLA-DR4 = conditions: cited from earlier work
[1] = tested on: IVS T cells from vaccinated melanoma patients; format: cell-based, human
[2] = target: purified HLA-DR4 (HLA-DRB1*0401) (human); assay: radioligand binding

Molecule | IC50 [2] [µM] | other results
MBP111–129: self peptide from myelin basic protein (PSESDELQTIQEDSAATSE; UniProt P02686 111-129, looked up, fragment) |  | affinity for HLA-DR4 (HLA-DR4): binds weakly
PKYVKQNTLKLAT [HA307–319] |  | affinity for HLA-DR4 (HLA-DR4): high affinity; Background IFN-γ secretion by T cells stimulated with APC + control peptide ([1]; Patient #2, 1 μM peptide stimulation): 213 pg/mL; Background IFN-γ secretion by T cells stimulated with APC + control peptide ([1]; Patient #2, 10 μM peptide stimulation): 208 pg/mL; Background IFN-γ secretion by T cells stimulated with APC + control peptide ([1]; Patient #4, 1 μM peptide stimulation): 187 pg/mL; Background IFN-γ secretion by T cells stimulated with APC + control peptide ([1]; Patient #4, 10 μM peptide stimulation): 191 pg/mL; Background IFN-γ secretion by T cells stimulated with APC + control peptide ([1]; Patient #5, 1 μM peptide stimulation): 346 pg/mL; Background IFN-γ secretion by T cells stimulated with APC + control peptide ([1]; Patient #5, 10 μM peptide stimulation): 388 pg/mL
WNRQLYPEWTLAQRLD [gp100 44-59 APL E54L] | 0.065 | 
WNRQLYPEWVEAQRLD [gp100 44-59 APL T53V] | 0.489 | 
WNRQLYPEWTEGQRLD [gp100 44-59 APL A55G] | 0.553 | 
WNRQLYPEATEAQRLD [gp100 44-59 APL W52A] | 0.372 | 
WNRQLYPEWTEAARLD [gp100 44-59 APL Q56A] | 0.276 | 
WNRQFYPEWTEAQRLD [gp100 44-59 APL L48F] | 0.28 | 
WNRQLYPAWTEAQRLD [gp100 44-59 APL E51A] | 0.199 | 
WNRQLYAEWTEAQRLD [gp100 44-59 APL P50A] | 0.189 | 
WNRQLYPEWTTAQRLD [gp100 44-59 APL E54T] | 0.104 | 
